Laboratory results taken from the DeepSol protein solubility set.

Assay: soluble on expression in E. coli; label from the status in PepcDB or PDB records

Row | Sequence | soluble on expression in E. coli
1 | MSLKNREWYKDAVFYEVLVRAFYDPEGNGVGSLKGLTEKLDYIQWLGVDCIWIPPFYDSPLRDGGYDIRNFREILPEFGTVDDFVELIDHAHRRGLRVITDLVMNHTSDQHAWFQESRRDPTGPYGDFYVWSDDPTLYNEARIIFVDTEESNWTYDPVRGQYFWHRFFSHQPDLNYDNPAVQEAMLDVLRFWLDLGLDGFRLDAVPYLFEREGTNGENLKETHDFLKLCRSVIEKEYPGRILLAEANQWPQDVVEYFGEKDKGDECHMAFHFPLMPRIFMGVRQGSRTPISEILANTPEIPKTAQWGIFLRNHDELTLEMVSDEERSYMYSQFAMEPRMRANVGIRRRLSPLLEGDRNQLELLHGLLLSLPGSPVLYYGDEIGMGDNIWLHDRDGVRTPMQWSNDRNGGFSKADPERLYLPAIQNDQYGYAQVNVESQLNRENSLLRWLRNQILIRKQYRAFGAGTYREVSSTNESVLTFLREHKGQTILCVNNMSKYPQAVSLDLREFAGHTPREMSGGQLFPTIAEREWIVTLAPHGFFWFDLTADEKDDMEEGHHHHHH | soluble
2 | MGSDKIHHHHHHMKILWITSVYPSSMKPGEGVFHETQVQELQKLGLDITVICPRPFHSAPVRMLKKTYRKKDVRPEYEIRKGIPVYRPFYRAVPGQLKWAQPHRRIASAVLKTMKQRDLYPDLIHAHFAMPSGGAAAVVSESAQIPYVLTLHGSDVNVYPHYSKGAFKAFKRAVGSASVVLAVSHKLQEEAKKLSGFDSSVLPIGIQLSRFQGNEETKEEIRKRLGLPLDQRLAVYVGRLVREKGIFELSEAIESLQDSPKAVFVGDGPAKSTLTQKGHIVTGQVPNHQVRDYLLAADLFVLPSYSEGMPTVVIEALALRVPVICTDVGGVSSLFGKHQHLLIKPKSAQALAEAITRYEHEQIWKPEVADDLYETVQAQFDAGKNAKALHHQYQTVTKTSV | not soluble
3 | MASYPCHQHASAFDQAARSRGHNNRRTALRPRRQQEATEVRPEQKMPTLLRVYIDGPHGMGKTTTTQLLVALGSRDDIVYVPEPMTYWRVLGASETIANIYTTQHRLDQGEISAGDAAVVMTSAQITMGMPYAVTDAVLAPHIGGEAGSSHAPPPALTLIFDRHPIAALLCYPAARYLMGSMTPQAVLAFVALIPPTLPGTNIVLGALPEDRHIDRLAKRQRPGERLDLAMLAAIRRVYGLLANTVRYLQCGGSWREDWGQLSGTAVPPQGAEPQSNAGPRPHIGDTLFTLFRAPELLAPNGDLYNVFAWALDVLAKRLRSMHVFILDYDQSPAGCRDALLQLTSGMVQTHVTTPGSIPTICDLARTFAREMGEAN | soluble
4 | MGSDKIHHHHHHMDTDLLKTFLEVSRTRHFGKAAENLYLTRSAVSFRVKQLESILGVALFERQRNNIQPTPAGERMLGHAEAVLTAWERAKQDVSLSQLQSTQLAIGAGPNIWDAYLQGYLQGLHVGLPGVALRTEVLPANAMTRQLMDRTLDIAISFDPPKLDQFELVQLGQINLLLVSSLKGQTGTAVLPGQYVKVDWGTAFNIVHAQEYASLPVPTLHTSSARIALDFILNNGGCAFLPEHLVQHALHSGELHHVSGASAISRNVYVAYWAENDRLAQIKQAIDFLRDDGSVFAHATI | not soluble
5 | MGSDKIHHHHHHSKNSLPILDSFLFNLEGNTLTVTASDAETRLVTSVDVMNAQGAGLFAVSAKILLDPLKELPEQPLTFDINDENLEIFIHFQNGKYNFIGQKGDTYPQQKPLNDNAISISMDAQMLLNGISRSLFATADDELRPVMNGVYFDIHTDDLTFVASDGHKLVRLRNLAVKSPERASFILPKKPANLLKNLLAKESEQVLIKFDDNNAYITCTNFEMVCRLIEGRYPNYNSVIPQENPFKVTIDRISFLNALKRVSVFSNPASSLVKLHLKDSLITVSAQDIDFSTSAEERIVCQFDGTELSIGFKATYLIEILGNISSEEVVLELADPSRAGLIVPSENDEDEDLLMLLMPMMLND | not soluble
6 | MSLINRKDALPITRQCRLLDLSRSGFYYTPRPVSAKDLELMRQIDEIHLAFPFYGSRKIRDELWARKHNVGLDKVRRLMRRMGIEALYVKPRLSLSYPEHVKYPYLLRRLEINRANQVWITDITYIPMAKGFCYLVAIMDEGHHHHHH | not soluble
7 | AVRQLDRQGRDDVEVAVLAPQPELRIRPRFYEPDVQRMAAPLGELFAAVGVRFVQGSAQRIDVAGKRVEYRDAEGTLAQLDYDRLVLAAGSGVWRPASVAGIDAAFDVDQLEDALRLEAHLHALRDLPDSPARNTVVVAGGGFTGIETATEMPARLRAILGEKAALRVIVVDRGAAIGASMGADLSGLIAEASAELGVEWCLGRSVAAVDAEGVTLDDGQRIEAKTVVWTVGVRASTLTGQIPGERDAQGRLHVDRNLKVLGLDDVYATGDVARAATDDLGNHALMTCQHAIALGRSAGNNVAADLLGVEPIPYSQVKYVTCLDLGGWGAVFTEGWDRQVRFVREEGKKIKTEINGVWIYPPAADRAVALAAADPLIPVVA | not soluble
8 | MGSDKIHHHHHHMDQFDRTPLMTADSEALATARRVLATEARALDSLATSLGDAFLKAVTLIEGAPGRVVVTGMGKSGHVARKIAATMASTGCPAFYVHPAEASHGDLGMVTRDDAVVALSNSGETPELSDVIAYTRRFEIPLIGITSRDGSTLAAASDVALVLPPNPEACPMGLAPTTSTTLMLALGDALAVTLLERKGFTAADFQVFHPGGKLGQRLLKVTDLMHGGDGLPLVGTEASMADVLLVMTAKSLGCAGVIDSGGKLAGVLTDGDLRRHMSPDLLTAKAAEVMTASPRTVPPNLLAAEALRQMNERSITSLFVVESDGRPVGVLHVHDCLRAGLA | not soluble
9 | MVHHDGTLQALITAYQKTPAFTDLAEATRKGYIRHIRQIEADFGDMPVQALADPRVRGEFLDWRDRLAQKSKRSADYAFSVLARILSWAHDRRKIPVNPCEKPGRLYTLEHHHHHH | not soluble
10 | MGSDKIHHHHHHMESYYAVLDAMAAAPGDGVFAIIIDVEGSAYQKEGTWMWIEASGKTTGLLSGGCFEEAVAAHALDVLSNRQATSISFDLRAEDDWSWGQGAGCNGLVRIWLEPVTSNTKPDWLALKRCLDRGEHVFMARSITDPREQPFFQSETGERFGGYSSPPRPEWLKELHGTPFFRGRNGVYETEEDTFFIQHFWPKPRLTIFGAGPDAPPLVSAAKAAGFSVTVSDWRPAFCQPSHVPDADAWVVGFPHETIPKLHLTERDFVVIMTHQFERDRELMRWLADIPLAYLGVLGPRRRTDRLFPSGTAPPFVRSPIGLPIGARSPHEIAISITAELINVLRGGPMETAR | not soluble
11 | EHKIILYENPNFTGKKMEIVDDDVPSFHAHGYQEKVSSVRVQSGTWVGYQYPGYRGLQYLLEKGDYKDNSDFGAPHPQVQSVRRIRDMQGNPKIIIFEQENFQGHSHELSGPCPNLKETGMEKAGSVLVQAGPWVGYEQANCKGEQFVFEKGEYPRWDSWTSSRRTDSLSSLRPIK | soluble
12 | MGFAKPPWGGKLKGVVRILGGKARGVALKVPASARPSPVRLRKALFDYLRLRYPRRGRFLDLFAGSGAVGLEAASEGWEAVLVEKDPEAVRLLKENVRRTGLGARVVALPVEVFLPEAKAQGERFTVAFMAPPYAMDLAALFGELLASGLVEAGGLYVLQHPKDLYLPLGERRVYGENALTLVEV | soluble
13 | MSLQDSLFQTETGFQPLAARMRPTSLEGYVGQAHLVGPGKPLRRAVEQGQLHSMILWGPPGVGKTTFARLLANVGDLSFETISAVLSGVKEIREVVERARNRKQSQGRDTLLFVDEVHRFNKSQQDAFLPHIEDGTFIFVGATTENPSFELNSALLSRTRVYVLKNLEAADIRRLLDSALESEQGFAGQLRVEESVLATMAEASGGDARRALNILEVAADLAEPDDDGNNRVTAQTLEQVLQTSLRRFDKGGDVFYDQISALHKSVRGSNPDGSLYWLCRMLDGGCDPLYVARRLVRIASEDIGNADPRALQITLQAWDAQERLGSPEGELALAQAVTYLALAPKSNAVYKAYNQCIADIRSDPDYEVPVHLRNAPTKLLKSMGHGEEYRYAHDEPDAYAAGEAYLPEAIYQRRYYQPVQRGLEIKLAEKRERLDSLDANSPKKREGHHHHHH | soluble
14 | MGSDKIHHHHHHMTETWNFINTGSKDPYYNMAMDEALLNFVSRGEIDPVIRFYTWNPATLSIGYFQRLQKEIDIDKVKEKGFGLVRRQTGGRGVLHDKELTYSVIVPESHPNMPSTVTEAYRVISQGLLEGFKNLGFNTYFAVPKTPEERQKLKQPRSSVCFDAPSWYELVVEGRKIAGSAQTRQKGVILQHGSILQDIDIDELFDMFIYKNERLKLKMKEAFVEKAVAINDISDKHITISQMEEAFEKGFKKGLNIELKPLELTEAQLAEVEELTEKYRSDEWMFRK | not soluble
